Measured values as given in patent publication US20100279930A1 (published 2010).
No end group written: not given here.

biological target: T1, human Y4 receptor (human, UniProt P50391 1-375); assay: 125I-PP displacement assay, human Y4 receptor membranes
T1 construct: whole, on cells; Used as a cell membrane preparation from transfected HEK-293T cells, not as intact cells; also called Human Y Receptor-4
T1 sequence (P50391 whole entry): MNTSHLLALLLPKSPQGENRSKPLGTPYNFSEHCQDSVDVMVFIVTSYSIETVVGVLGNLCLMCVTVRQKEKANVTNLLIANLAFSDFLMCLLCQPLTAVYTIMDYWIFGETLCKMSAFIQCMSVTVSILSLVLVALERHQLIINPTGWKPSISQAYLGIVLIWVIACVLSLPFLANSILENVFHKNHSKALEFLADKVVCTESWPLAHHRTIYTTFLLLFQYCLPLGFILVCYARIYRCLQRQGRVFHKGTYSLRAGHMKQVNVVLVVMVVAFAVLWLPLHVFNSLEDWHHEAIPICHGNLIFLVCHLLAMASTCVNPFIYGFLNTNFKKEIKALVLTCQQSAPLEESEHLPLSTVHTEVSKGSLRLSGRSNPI

Binder	binding result
GAPLEPHAPGDNATPEEMAKYAAELRRYINKLTRPRY (ends and bridges not checked, Synthetic analogue of human PP; cited for a change at position 7) [compound of SEQ ID NO:1090 (code 4059937)]	binds
APLEPVYPGDNATPEQMAQYAADLRRYINMLTRPHRY (ends and bridges not checked, Synthetic analogue of human PP; cited for changes at positions 34-36) [compound of SEQ ID NO:62 (code 6659)]	binds
KAPLEPVYPGDNATPEQMAQYAADLRRYINMLTRPRY (Synthetic analogue of human PP with an additional amino acid at position 0) [compound of SEQ ID NO:52 (code 6647)]	binds
AAPLEPVYPGDNATPEQMAKYAADLRRYINKLTRPRY (Synthetic analogue of human PP with additional Ala at position 0, Lys at 19 and Lys at 30) [compound of SEQ ID NO:348 (Ala 0, Lys19, Lys 30, code 4056385)]	binds
HAPLEPVYPGDNATPEQMAQYAADLRRYINMLTRPRY (Synthetic analogue of human PP with an additional amino acid at position 0) [compound of SEQ ID NO:53 (code 6650)]	binds
PAPLEPVYPGDNATPEQMAQYAADLRRYINMLTRPRY (Synthetic analogue of human PP with an additional amino acid at position 0) [compound of SEQ ID NO:56 (code 6653)]	binds
AAPLEPVYPGDNATPEQMAQYAAALRRYINKLTRPRY (Synthetic analogue of human PP with additional Ala at position 0, Ala at 23 and Lys at 30) [compound of SEQ ID NO:168 (Ala 0, Ala 23 and Lys 30, code 7215)]	binds
AAPLEPVYPGDNATPEQMAQYAADLRRYINKLTRPRY (ends and bridges not checked, Synthetic analogue of human PP; introduced as additional Ala at position 0 and Lys at position 30, later in the same paragraph labelled 'Ala 0, Lys 19') [compound of SEQ ID NO:171 (code 7218)]	binds
APLEPVYPGDNATPEQMAQYAADLRRYINMLTRQRY (ends and bridges not checked, Synthetic analogue of human PP; cited for changes at positions 34-36) [compound of SEQ ID NO:24 (code 6453)]	binds
APLEPEYPGDNATPEQMAQYAADLRRYINMLTRPRY (ends and bridges not checked, Synthetic analogue of human PP; cited for a change at position 6) [compound of SEQ ID NO:276 (4055746)]	binds
APLEPVYPGDNATPEQMAQYAADLRRYINVLTRPRY (ends and bridges not checked, Synthetic analogue of human PP; cited for changes at positions 29-31) [compound of SEQ ID NO:260 (code 4055714)]	binds
APLEPVYPGDNATPEQMAQYAADLRRYINFLTRPRY (ends and bridges not checked, Synthetic analogue of human PP; cited for changes at positions 29-31) [compound of SEQ ID NO:261 (code 4055715)]	binds
APLEPVYPGDNATPEQMAQYAADLRRYINILTRPRY (ends and bridges not checked, Synthetic analogue of human PP; cited for changes at positions 29-31) [compound of SEQ ID NO:259 (code 4055713)]	binds
APLEPVYPGDNATPEQMAQYAADLRRYINMLTRPRF (ends and bridges not checked, Synthetic analogue of human PP; cited for changes at positions 34-36) [compound of SEQ ID NO:255 (code 4055708)]	binds
APLEPVYPGDNATPEQMAQYAAALRRYINKLTRPRY (Synthetic analogue of human PP with Ala at position 23 and Lys at position 30) [compound of SEQ ID NO:167 (code 7214)]	binds
APLEPFYPGDNATPEQMAQYAADLRRYINMLTRPRY (ends and bridges not checked, Synthetic analogue of human PP; cited for a change at position 6) [compound of SEQ ID NO:275 (code 4055745)]	binds
PAPLEAVYPGDNATPEQMARYYSELRRYINKLTRPRY (ends and bridges not checked, Synthetic analogue of human PP; cited for Ala at position 5) [compound of SEQ ID NO:702 (code 4058286)]	binds

biological target: T1, human Y4 receptor; assay: 125I-PP displacement assay, human Y4 receptor membranes; weaker reference compound

Binder	binding result
AAPLEPVYPGDNATPEQMAQYAADLRRYINMLTRPRY (Synthetic analogue of human PP with an additional Ala at position 0) [compound of SEQ ID NO:9 (Ala 0, code 6433)]	binds
APLEPVYPGDNATPEQMAKYAADLRRYINMLTRPRY (Synthetic analogue of human PP with Lys at position 19) [compound of SEQ ID NO:224 (Lys 19, code 4055291)]	binds
APLEPVYPGDNATPEQMAQYAADLRRYINKLTRPRY (Synthetic analogue of human PP with Lys at position 30) [compound of SEQ ID NO:281 (Lys 30, code 4055855)]	binds
APLEPVYPGDNATPEQMAQYAAALRRYINMLTRPRY (Synthetic analogue of human PP with Ala at position 23) [compound of SEQ ID NO:277 (Ala 23, code 4055747)]	binds
